Reference: PMC3957475 (Biochemical Journal, 2014)

Tests used:
[1] = molecular target: T1, Biotinylated GAK (cyclin G-associated kinase) (Homo sapiens, biotin (biotinylated; site and way not stated)); assay: SPR; Biacore 3000, 25°C, 30 μl/min; biotinylated GAK captured on CAP chip (60-120 RU); nanobodies injected in serial 2-fold dilutions for 3 min; 50 mM Tris/HCl pH 7.4, 150 mM NaCl, 50 μM EDTA, 0.005% Tween 20; kinetic global fit, 1:1 Langmuir model; settings: both partners purified
T1 construct: Captured on a CAP chip with the Biotin CAPture kit; the general purification removes the His6 tag
T1 chain: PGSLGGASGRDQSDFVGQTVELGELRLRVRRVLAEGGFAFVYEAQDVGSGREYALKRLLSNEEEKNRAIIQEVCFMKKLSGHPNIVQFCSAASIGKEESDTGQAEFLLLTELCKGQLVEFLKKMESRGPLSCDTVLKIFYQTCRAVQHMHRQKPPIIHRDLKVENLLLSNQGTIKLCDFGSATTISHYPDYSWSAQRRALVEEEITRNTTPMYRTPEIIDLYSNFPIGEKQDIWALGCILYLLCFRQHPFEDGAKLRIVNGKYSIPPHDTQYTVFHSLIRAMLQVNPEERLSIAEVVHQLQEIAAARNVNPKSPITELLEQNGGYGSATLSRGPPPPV

[2] = molecular target: T1, Biotinylated GAK (cyclin G-associated …); assay: SPR; same SPR experiment as the kinetic fit (biotinylated GAK on CAP chip, 25°C, 50 mM Tris/HCl pH 7.4, 150 mM NaCl); steady-state analysis; settings: both partners purified

B1: NbGAK_4 (VHH)
VHH: QVQLQESGGGSVQAGGSLRLSCGASEYTSRMGWFRQAPGAEREGVACIHRQSNLSYYSDSVRGRFTISQDNAKTTAFLLMSSLKPEDTAIYYCATTTDCAAFVERATAITAGQGTQVTVSS
notes: about 120 amino acids; structures of the complex with GAK deposited here (among PDB 4C57, 4C58, 4C59); From a GAK-immunised dromedary, phage display vector pMECS, which adds an HA and a His tag
Kd [1]: 10.3 nM | Kd [2]: 12.8 nM

B2: NbGAK_1 (VHH)
VHH: QVQLQESGGGLVQPGGSLRLSCSASGFKFNDSYMSWVRRVPGKGLEWVAGIWEDSSAAHYRDSVKGRFTISRDNAKNMLYLQMSSLKSDDTGLYYCVRRGYSGDYRPINNPSSQGTQVTVSS
notes: about 120 amino acids; structure of the complex with GAK deposited here (one of PDB 4C57, 4C58, 4C59); From a GAK-immunised dromedary, phage display vector pMECS, which adds an HA and a His tag
Kd [1]: 59.9 nM | Kd [2]: 60.3 nM
